Measured values published in patent US20120129720, “APTAMER THAT RECOGNIZES PEPTIDE” (KANAGAWA PREFECTURAL HOSPITAL ORGANIZATION, published 2012).

T1: His-MIF (His-tag/T7 gene 10 leader/Xpress-MIF fusion) (UniProt P14174 P14174:1-115)
T1 chain: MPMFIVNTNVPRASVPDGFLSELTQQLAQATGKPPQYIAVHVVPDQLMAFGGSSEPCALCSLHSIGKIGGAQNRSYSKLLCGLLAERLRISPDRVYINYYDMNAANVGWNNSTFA

B1: #736 (ssRNA)
RNA: GGGACGCUCACGUACGCUCACCUCAAGUCGGGUCUAUUGUCUCCGGCGAAGCAUGGACUGUCAGUGCCUGGACGUGCAGU
modifications: 3' A20 tail for capture
B2: #730 (ssRNA)
RNA: GGGACGCUCACGUACGCUCAUUCGACCGGGUUAUUGGCUGCUCUCCUCUGGUUUGUGAUGUCAGUGCCUGGACGUGCAGU
modifications: 3' A20 tail for capture
B3: #7034 (ssRNA)
RNA: GGGACGCUCACGUACGCUCAAAAUGCUGUUGCAGGUUAUUUGGCUCUCGGUCUGAGAAUGUCAGUGCCUGGACGUGCAGU
modifications: 3' A20 tail for capture
B4: #7030 (ssRNA)
RNA: GGGACGCUCACGUACGCUCAAUGAGCUCACCUGGGUAAUUGGCGCCAAUUCAAGGGUCUGUCAGUGCCUGGACGUGCAGU
modifications: 3' A20 tail for capture
B5: #719 (ssRNA)
RNA: GGGACGCUCACGUACGCUCAGCUCUCUUACUUCCUGGGUGACUGGCUCUUUCGGGGUAUGUCAGUGCCUGGACGUGCAGU
modifications: 3' A20 tail for capture
B6: #7004 (ssRNA)
RNA: GGGACGCUCACGUACGCUCAGGCGUUCUUCGCUGUAGUUCCGGUUUAUUGGUCUUUGUUUUCAGUGCCUGGACGUGCAGU
modifications: 3' A20 tail for capture
B7: #745 (ssRNA)
RNA: GGGACGCUCACGUACGCUCAGAGCCACGGGUUUACUGGCGCUAAACAAAUGUUUAGGAUGUCAGUGCCUGGACGUGCAGU
modifications: 3' A20 tail for capture
B8: #7029 (ssRNA)
RNA: GGGACGCUCACGUACGCUCACGAAAUCCAGGUUUGAUUGGCGUGGCACCCUUGCCAAGUGUCAGUGCCUGGACGUGCAGU
modifications: 3' A20 tail for capture
B9: #7008 (ssRNA)
RNA: GGGACGCUCACGUACGCUCAUUGUCUUGGUGUAUUGGUUACUGUCCAAUGGGCGGUGUAUUCAGUGCCUGGACGUGCAGU
modifications: 3' A20 tail for capture
B10: #7052 (ssRNA)
RNA: GGGACGCUCACGUACGCUCAAUUCUGUUCUGUCUCUCCGGGUUUACUGGCGCUAUGAAUGUCAGUGCCUGGACGUGCAGU
modifications: 3' A20 tail for capture
B11: #723 (ssRNA)
RNA: GGGACGCUCACGUACGCUCAGGUUAUUGGCGCCCUCGAACCAAAAUGGAUGCCGGGAAUGUCAGUGCCUGGACGUGCAGU
modifications: 3' A20 tail for capture
B12: #7054 (ssRNA)
RNA: GGGACGCUCACGUACGCUCAAAGUGUCUGCAAGUCUACCGGUUUAUUGGCCACUCCGUUUUCAGUGCCUGGACGUGCAGU
modifications: 3' A20 tail for capture
B13: #707 (ssRNA)
RNA: GGGACGCUCACGUACGCUCACGGUGGAUUGGCGACGAUGACCUUGAUAGUCCUCGUAAUGUCAGUGCCUGGACGUGCAGU
modifications: 3' A20 tail for capture
B14: #7009 (ssRNA)
RNA: GGGACGCUCACGUACGCUCAUGAUUGAAUGGGCGAAUCGACCUUACCGGUUUUCUGCAACUCAGUGCCUGGACGUGCAGU
modifications: 3' A20 tail for capture
B15: #715 (ssRNA)
RNA: GGGACGCUCACGUACGCUCAUAGAGUGUAUUUGUACCAGGUAUACUGGCGCGAACGAAUGUCAGUGCCUGGACGUGCAGU
modifications: 3' A20 tail for capture
B16: #7062 (ssRNA)
RNA: GGGACGCUCACGUACGCUCAUCUCGCCGCAUUUCCAGGUUUUUUGGCGCUUAUGAAUGAUCAGUGCCUGGACGUGCAGU
modifications: 3' A20 tail for capture
B17: #725 (ssRNA)
RNA: GGGACGCUCACGUACGCUCACAUGUCCGGGUGGAUUGGAUCGAUUACUUGUUUUCGUUUAUCAGUGCCUGGACGUGCAGU
modifications: 3' A20 tail for capture
B18: #7015 (ssRNA)
RNA: GGGACGCUCACGUACGCUCAUGUCUCGGUUUAUUGGCGGUCGGACUUUUGCCCUGCGAUGUCAGUGCCUGGACGUGCAGU
modifications: 3' A20 tail for capture
B19: #743 (ssRNA)
RNA: GGGACGCUCACGUACGCUCAACACUUGCUUUUUCUUGUCCGGGUUUAUUGGUCGUUGUAUUCAGUGCCUGGACGUGCAGU
modifications: 3' A20 tail for capture
B20: #748 (ssRNA)
RNA: GGGACGCUCACGUACGCUCAGCGCUUCUCGUUUGCUUUCCGGGUUCAUUGGUCCAUGUUUUCAGUGCCUGGACGUGCAGU
modifications: 3' A20 tail for capture
B21: #7049 (ssRNA)
RNA: GGGACGCUCACGUACGCUCACGCUCAGGUGAAUUGGUUACGUUUUCUCUGACAAUGUGGAUCAGUGCCUGGACGUGCAGU
modifications: 3' A20 tail for capture
B22: #7007 (ssRNA)
RNA: GGGACGCUCACGUACGCUCAGAGAUCGUUCUGGUUAUUGGCGCCUUCUGAUAAAGGAAUGUCAGUGCCUGGACGUGCAGU
modifications: 3' A20 tail for capture
B23: #708 (ssRNA)
RNA: GGGACGCUCACGUACGCUCACGGUUAUUGGCGGAGGAUCUGUCAUGGCAUGCCUCGACUGUCAGUGCCUGGACGUGCAGU
modifications: 3' A20 tail for capture
B24: #701 (ssRNA)
RNA: GGGACGCUCACGUACGCUCACCGGGUUAUUGGCGCAAUAUUGGUAUCCUGUAUUGGUCUGUCAGUGCCUGGACGUGCAGU
modifications: 3' A20 tail for capture
B25: #718 (ssRNA)
RNA: GGGACGCUCACGUACGCUCACUUCUUUCCCACUCACGUCUCGGUUUUAUUGGUCCAGUUUUCAGUGCCUGGACGUGCAGU
modifications: 3' A20 tail for capture
B26: #716 (ssRNA)
RNA: GGGACGCUCACGUACGCUCACCUGUUUUGUCUAGGUUUAUUGGCGCUUAUUCCUGGAAUGUCAGUGCCUGGACGUGCAGU
modifications: 3' A20 tail for capture
B27: #727 (ssRNA)
RNA: GGGACGCUCACGUACGCUCACUCAGGUGAUUGGCGCUAUUUAUCGAUCGAUAAUUGAAUGUCAGUGCCUGGACGUGCAGU
modifications: 3' A20 tail for capture
B28: #714 (ssRNA)
RNA: GGGACGCUCACGUACGCUCAGGUUUAUUGGUGCCGUGUAGUGGAAUAUCAGUGCCUGGACGUGCAGU
modifications: 3' A20 tail for capture
B29: #746 (ssRNA)
RNA: GGGACGCUCACGUACGCUCAGGUGAAUUGGCACUUCUUUAUCUACGGAUCGAGUCGGAUGUCAGUGCCUGGACGUGCAGU
modifications: 3' A20 tail for capture
B30: X region SEQ 2347 (ssRNA)
RNA: GGGACGCUCACGUACGCUCAUUUUUCCUCUUUGCCCUAUGUUUGGGCGACGCAUCCGGGUUCAGUGCCUGGACGUGCAGU
modifications: 3' A20 tail for capture
B31: X region SEQ 2344 (ssRNA)
RNA: GGGACGCUCACGUACGCUCAGUCCAUUUUCGUCGUGUAAUUUCGGCAACGGUUCCGGGGAUCAGUGCCUGGACGUGCAGU
modifications: 3' A20 tail for capture
B32: X region SEQ 2345 (ssRNA)
RNA: GGGACGCUCACGUACGCUCAUAUGUUCGACUUAAUUUGAUCUGCAUGUUUGUCUCCGGGCUCAGUGCCUGGACGUGCAGU
modifications: 3' A20 tail for capture
B33: X region SEQ 2346 (ssRNA)
RNA: GGGACGCUCACGUACGCUCAUGUUCCGGGCCGACUGGCUGUUAGAGAUCUCUGAUGUAGGUCAGUGCCUGGACGUGCAGU
modifications: 3' A20 tail for capture
B34: X region SEQ 2343 (ssRNA)
RNA: GGGACGCUCACGUACGCUCACUGUGCUCGGAUUUCAUCCGGGUCCUAUACUUCUACUAUAUCAGUGCCUGGACGUGCAGU
modifications: 3' A20 tail for capture

Target: T1, His-MIF (His-tag/T7 gene 10 …)
Test: SPR; 600 nM His-MIF; data not shown
Conditions: MIF 115 aa; ATGen
B1: binds. B2: binds. B3: binds. B4: binds. B5: binds. B6: binds. B7: binds. B8: binds. B9: binds. B10: binds. B11: binds. B12: binds. B13: binds. B14: binds. B15: binds. B16: binds. B17: binds. B18: binds. B19: binds. B20: binds. B21: binds. B22: binds.

Target: T1, His-MIF (His-tag/T7 gene 10 …)
Test: SPR; 600 nM His-MIF
Conditions: MIF 115 aa; ATGen
Protocol: A molecular interaction between each of the RNA aptamers and each of fusion proteins, i.e., a binding ability of each of the RNA aptamers to each of the fusion proteins was analyzed using surface plasmon resonance. The analysis of the binding ability was performed using BiacoreX (GE Healthcare UK Ltd.) according to the instruction thereof. Specifically, first, polyadenine having 20 bases was added to the 3′-end of the RNA aptamer. Thus, polyadenine-added RNA aptamer was prepared. This was then heated at 95° C. for 5 minutes and rapidly cooled on ice. Biotinylated polythymine having 20 bases obtained by biotinylating the 5′-end of polythymine had been bound to a streptavidin chip (Sensor chip SA, GE Healthcare UK Ltd.). The polyadenine-added RNA aptamer was introduced into a flow cell on the streptavidin chip using a running buffer. At this stage, the polyadenine-added RNA aptamer was immobilized on the chip via the biotinylated polythymine by complementary binding between poly A of the polyadenine-added RNA aptamer and the biotinylated polythymine. The polyadenine-added RNA aptamer was caused to bind to the biotinylated polythymine until a resonance unit (RU) (resonance unit; 1 RU=1 pg/mm²) reaches 700 RU. Subsequently, HBS (Hepes Buffered Saline) containing the fusion protein with a predetermined concentration was introduced into the chip using a running buffer, and a signal (RU) was measured. The composition of the running buffer includes 10 mmol/L HEPES (4-(2-hydroxyethyl)-1-piperazine ethanesulfonic acid), 150 mmol/L sodium chloride, 0.1 mmol/L magnesium acetate, and 0.01% Tween (registered trademark) 20 (pH 7.2). As a control, an introduction of the fusion protein and a measurement of a signal were performed in the same manner as described above using a chip to which biotinylated polythymine had been bound, on which no polyadenine-added RNA aptamer had been immobilized.
A binding ability of each of the RNA pools in the respective rounds to His-MIF was analyzed by surface plasmon resonance in the same manner as in “1. (4) Molecular interaction analysis” of Example 1. […] N40 (control RNA) also was analyzed in the same manner as mentioned above.
Work on B23 yielded a binding signal of 1.16 His-MIF/RNA bonds. In the case of B24, the binding signal is reported as 1.32 His-MIF/RNA bonds. B25 was tested, and the binding signal was 0.75 His-MIF/RNA bonds. For B26, the binding signal was 0.99 His-MIF/RNA bonds. In the case of B27, the binding signal is reported as 1.05 His-MIF/RNA bonds. In the case of B28, the binding signal is reported as 1.01 His-MIF/RNA bonds. B29 showed a binding signal of 0.5 His-MIF/RNA bonds.

Target: T1, His-MIF (His-tag/T7 gene 10 …)
Test: SPR; data not shown
Conditions: MIF 115 aa; ATGen
B30: binds. B31: binds. B32: binds. B33: binds. B34: binds.
